Test results from paper PMC5866929.

B1: O1 operator 40 bp (dsDNA)
DNA 1: TGTTGTGTGGAATTGTGAGCGGATAACAATTTCACACAGG
DNA 2: CCTGTGTGAAATTGTTATCCGCTCACAATTCCACACAACA
B2: Oscram 40 bp (dsDNA)
DNA 1: GTCATAAGTATCGTGAACTGCTGAGAGTGCTAGCGTTAGT
DNA 2: ACTAACGCTAGCACTCTCAGCAGTTCACGATACTTATGAC

How the values were obtained:
[1] = biological target: wild-type LacI (UniProt P03023 1-360); test: EMSA
[2] = biological target: T1, His6-LacI-59 (UniProt P03023 59-360, del1-58); test: EMSA
[3] = biological target: T1, His6-LacI-59; test: filter binding
[4] = biological target: His6-LacI-51 (UniProt P03023 51-360, del1-50); test: filter binding
Sequence of His6-LacI-51 (P03023 51-360, stated change not applied): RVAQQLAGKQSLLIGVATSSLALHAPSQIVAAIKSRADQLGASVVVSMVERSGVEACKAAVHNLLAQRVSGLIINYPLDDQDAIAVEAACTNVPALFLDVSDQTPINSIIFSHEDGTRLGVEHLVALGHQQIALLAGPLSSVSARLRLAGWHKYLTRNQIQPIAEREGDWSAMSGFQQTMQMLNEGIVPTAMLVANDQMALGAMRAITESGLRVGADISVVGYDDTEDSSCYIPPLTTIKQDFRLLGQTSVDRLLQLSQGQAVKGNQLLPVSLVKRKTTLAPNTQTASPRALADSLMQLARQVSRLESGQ

T1 sequence (P03023 59-360, stated change not applied): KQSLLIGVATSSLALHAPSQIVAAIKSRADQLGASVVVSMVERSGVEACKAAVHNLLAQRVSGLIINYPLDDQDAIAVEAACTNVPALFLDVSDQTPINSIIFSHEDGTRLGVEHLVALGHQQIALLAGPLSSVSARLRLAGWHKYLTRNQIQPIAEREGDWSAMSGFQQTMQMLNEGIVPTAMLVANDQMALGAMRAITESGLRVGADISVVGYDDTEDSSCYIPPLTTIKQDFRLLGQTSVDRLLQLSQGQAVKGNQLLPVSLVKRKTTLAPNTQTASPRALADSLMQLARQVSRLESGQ
Sequence of wild-type LacI (P03023 whole entry): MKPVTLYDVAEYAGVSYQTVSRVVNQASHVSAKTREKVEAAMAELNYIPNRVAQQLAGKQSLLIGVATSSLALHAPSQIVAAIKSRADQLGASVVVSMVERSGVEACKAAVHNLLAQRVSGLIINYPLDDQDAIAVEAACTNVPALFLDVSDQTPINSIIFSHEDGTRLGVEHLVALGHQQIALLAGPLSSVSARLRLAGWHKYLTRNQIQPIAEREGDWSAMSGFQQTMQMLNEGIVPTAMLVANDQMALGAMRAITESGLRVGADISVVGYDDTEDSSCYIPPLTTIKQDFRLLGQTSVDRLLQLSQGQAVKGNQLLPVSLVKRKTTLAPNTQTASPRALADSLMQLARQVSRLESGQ

Binder | binding result [1] | binding result [2] | binding result [3] | apparent K (half saturation) [4] [µM]
B1 | binds | no binding | – | –
B2 | – | – | no binding | ~5
